Test results taken from the RNAGym collection of RNA variant scans (doi:10.7554/elife.90254).

B1: OR4K15 (parent)
chain: GUUAACGGUCAUAGGCCAUGGAAACUAGGAGCACCAUUUCGCUGCCAGUGAAGAAAUGAACAAAGAAAAUCUGGGCCAGGCAGGCAUCAAAAGAAAUAGUCUUGCGCUCAACCAGAAAGUCUGUAAUCAUUUUAAGGGUA

Variants of: B1
Assay: self-cleavage, relative activity (ratio to wild type); higher = more cleavage; in vitro, sequencing; the parent is a self-cleaving ribozyme

Variant | self-cleavage
U49C A117U | 1.08
A59U A86U | 1.92
C109U C128A | 0.12
G75U U102C | 0.12
G1A U9G | 1.23
G104A A126U | 0.09
A69G A117U | 0.97
A23G A92C | 1.29
A114G U122C | 0.16
A36G A117U | 1.29
A62G C128U | 1.13
C6U U108C | 0.08
U43A A82G | 0.13
U103A A134G | 0.27
U57G U100C | 2.26
U133C A135G | 0.03
U12A A140G | 1.5
A78G A111G | 0.03
G20A A54G | 1.28
U102C A110C | 0.4
A36U U49A | 0.81
A111U A134G | 0.03
A24U A114C | 0.04
A129G G137U | 1.7

Variant | self-cleavage
A67G U100C | 2.32
A23G A110C | 0.09
C40U A89U | 1.93
A33U A118G | 0.91
U72C A82U | 0.08
A82U U120C | 0.03
A55G G99A | 0.16
A33U C112U | 0.01
A22U G65U | 0.33
A47C A125G | 0.42
A33G U49G | 0.61
U2C U130C | 1.06
A66U A95G | 1.87
A95G U120A | 2.78
U43G A67G | 1.89
U43C A67G | 1.39
A30G A64C | 1.38
U49C U120G | 1.33
U12C A67G | 1.33
G41U A94U | 1.48
A59U U132A | 1.61
C6A A55G | 1.13
U102C U108A | 0.01
A4C | 0.61

Variant | self-cleavage
U3A U70A | 1.46
U72C A117U | 0.15
U39A A116U | 0.09
U37C G136A | 2.23
A78G A110C | 0.3
A95G U139G | 2.68
U19G A86U | 0.68
G75A U100C | 0.12
A55G A78U | 0.18
U37G A96G | 1.97
A82U U132C | 0.18
A30U U132C | 1.33
A23G A47U | 0.77
A22C A30G | 1
G53A U103C | 0.64
A22G U124A | 1.29
A23G U130C | 0.57
G53A | 1.21
A47G G104A | 0.05
C45U A96U | 1.55
G1U U103C | 1.59
A117G U132C | 1.85
A68U U122C | 1.51
U12A A135G | 1.47

Variant | self-cleavage
U49A A62G | 0.7
A24G U37C | 1.12
U38A U103G | 0.04
A52U U100C | 2.57
A47C A56G | 1.35
A36U A56C | 1.49
U9G A68G | 0.72
U72C A96G | 0.05
A114G A140G | 0.26
C113U A117G | 0.08
U12A U131C | 2.37
G21A U38G | 1.15
A11G G74A | 0.41
G14U A89G | 1.39
C40U A98G | 0.83
G83A U108C | 0.02
A11U U108C | 0.01
A13G A55U | 1.2
C107U A134G | 0.03
A56G A89G | 1.5
A96G G136A | 2.06
U100C A118G | 1.11
A47U A78U | 0.25
A36U U130C | 1.45

Variant | self-cleavage
G74A | 0.12
U97C G115U | 0.03
A33U U122C | 1.02
A33C A63G | 1.98
A24C U108C | 0.01
A118U U120C | 0.08
U57G A91G | 0.52
G15A A23G | 0.9
A11U A52C | 1.27
A24G G138A | 1.18
G28U A69G | 1.57
U9C G29A | 2.15
U9C A18G | 1.65
A11U U139C | 1.23
A36U U103A | 0.63
A117C U120A | 1.28
U2C C46U | 0.54
A11C A63G | 1.91
A52G C85U | 0.87
U12A A18G | 1.65
U39A U70C | 0.92
U43C U72C | 0.07
C77A U122C | 0.6
G31A A56G | 1.41

Variant | self-cleavage
A24U A52G | 1.32
A36U A135U | 1.85
U49C A114U | 0.12
A23U U70C | 0.83
A89C A117U | 0.98
G15A A66U | 1.18
A13G U120A | 1.9
C40A A60G | 1.56
A66U A110G | 0.14
U39A A86G | 1.76
U43A A66U | 1.62
U9A A129U | 1.02
A54U A90G | 0.85
A56G A82U | 0.23
U37A U127C | 0.71
U72A U103C | 0.14
A13G A64C | 1.08
C42U C128U | 1.41
G53U C112U | 0.01
C42U A51U | 1.45
A24G A89U | 1.41
C76U A117G | 0.22
G14A A90C | 0.98
A24C G104A | 0.01

Variant | self-cleavage
U57A U70A | 0.62
U57G A110G | 0.17
A47G A55G | 0.59
A23G A33C | 1.52
A95G A98U | 1.77
A117G A140U | 1.12
C45U A78U | 0.33
A59G A116U | 0.32
A59G C77U | 1.7
U9C U39A | 1.33
U87A U108C | 0.02
U3G A11U | 0.74
A52U A78G | 0.24
A4G U133C | 1.3
G20A A126G | 1.02
G48A A55G | 1.61
G29A A96U | 1.27
A68C A110G | 0.16
G93C A98G | 1.57
A118U U130G | 0.71
U37A U102C | 1.85
A89C A116G | 0.19
A54G U87C | 0.9
U38C A51U | 1.24

Variant | self-cleavage
U100G A126G | 1.02
A24G A90G | 1.03
A18U U122A | 0.64
C76U A86U | 0.08
A62C A63G | 1.55
U97A U139A | 1.2
A114G U127C | 0.11
C45U U132C | 0.61
C61U U72A | 0.19
G48A U127A | 2.28
A36U A110G | 0.21
A54U A117G | 1.63
U57A A129G | 0.9
A116G U127A | 0.72
C45U G48A | 1.78
A52G A114G | 0.28
A47U A51G | 0.86
G50U C121A | 2.92
U97C A114G | 0.13
U72C U103G | 0.01
C16U A140G | 1.64
A36U C76A | 0.1
U19C C45U | 0.47
U70C C113U | 0.02

Variant | self-cleavage
A33G A96U | 1.14
U12C U97A | 1.6
A90G U122A | 0.84
G83A U103C | 0.41
A51C A82G | 0.67
A63G A134G | 1.47
U43A A55U | 2.41
G8C A110G | 0.26
U38C U139C | 0.91
U108A A118G | 0
A82U U139A | 0.18
A5G A52U | 0.85
A47U A117G | 1.25
U37C A117G | 1.98
C32U U39C | 1.47
U3A G53A | 1.01
A82C A89C | 0.16
A5C G106U | 0.07
A33U A95U | 2
A59U U100A | 0.74
C76U A82G | 0.09
A67C | 1.83
A13G A67C | 0.22
A51G A98U | 2.81

Variant | self-cleavage
A24U U97G | 1.9
A13G A47U | 1.26
C40U A90G | 1.72
G84A U131C | 2.37
C45A U120A | 2.12
G53U A60U | 1.71
U9A A47U | 0.91
A18G A86C | 1.68
A82U A114G | 0.03
U9C C35A | 1.71
A56C A129G | 1.35
U102C A129G | 1.74
C112U U132C | 0.01
U26C U72A | 0.33
A69U A114G | 2.05
A27G G44A | 1.52
A60G A126G | 0.27
A23C A95G | 1.67
A22U U39A | 2.33
A92G U131C | 0.49
U49A A51C | 0.3
U57C A90G | 0.97
U87A A114C | 0.05
U26C U49C | 1.41

Variant | self-cleavage
G1A A62C | 2.59
A52G C71U | 0.44
A33U U57C | 0.68
U3C A11G | 1.34
A24U C71A | 0.49
G75A A114U | 0.02
A33U U72G | 0.51
A33G C42G | 1.02
A47U A92G | 0.84
U49C U87C | 1.58
C71U U102C | 0.66
A82U A91G | 0.11
U72A A98G | 0.04
U9G U12C | 0.29
A62C A116U | 0.63
U26C A33G | 0.84
A18C A129G | 0.75
U57C U130C | 0.78
G8A A91G | 1.17
A47G A69U | 1.35
A52U U122C | 0.74
A52G A60U | 0.9
A82U A140U | 0.24
A51G A125U | 1.72

Variant | self-cleavage
A67G A117G | 1.66
A30G A47C | 1.21
U87A G106C | 0.01
A33G U120C | 0.53
A23G A66G | 1.02
A59C U127C | 1.18
G31A U70A | 1.73
A24G A54U | 1.48
U2C C25U | 1.85
C17U U38A | 1.03
U57C A116G | 0.33
A52U U72C | 0.17
A90U U103C | 1.27
U103G G104A | 0.59
A90G A95G | 2.02
C85A A134G | 1.83
A66G A117U | 0.6
A13U A23G | 1.43
A95G A117G | 2.65
A13U U127C | 0.75
U49G A56G | 1.64
U103C U127C | 0.26
A59G G115U | 0.13
A114U A118G | 0.05

Variant | self-cleavage
A94U A118C | 1.53
A30G U57A | 1.15
U2C A30G | 1.22
C71G | 0.24
A68G A94G | 1.34
A66G A114G | 0.48
C6U U102C | 0.35
A23G A89U | 0.72
A111G A126G | 0.01
A47U A98C | 1.44
A62U U100C | 2.34
A67G U70C | 1.05
U37C G75A | 0.08
U100C A129U | 1.49
A5G U39C | 1.32
A27G U133C | 1.58
C6U U130C | 0.74
A68G U132C | 1.38
A64G U108A | 0.01
A60G U97C | 1.05
A63G U139A | 1.74
A11G G119A | 2.11
U130A | 0.92
U49C A98U | 2.55

Variant | self-cleavage
U12C A23U | 0.97
A55G G74A | 0.31
C88A | 1.78
A22U A51U | 1.14
A5U U100C | 1.64
U72A C105U | 0.04
A33U A51C | 2.09
A82G A118G | 0.14
A23G C121U | 2.12
A24C U102C | 1.22
A67G A129U | 1.03
U72A A129G | 0.08
U38C A135G | 1.9
A64G G74U | 0.24
A60C U72C | 0.16
A91C U120C | 0.94
A91U | 1.74
U37C A90G | 1.12
A5G A95G | 1.27
A47U U57C | 0.75
A11G A62G | 1.11
A4G U37C | 0.91
